One may read the Kd as a measure of binding affinity in units of concentration.

Assay [1] concerns the target T1, recombinant cynomolgus MerTK extracellular domain (cynomolgus, UniProt Q12866 21-505 (human entry)).
T1 construct: also called cyno MerTK ECD; not shown: polyHis or TEVS/Thrombin/murine IgG2a-Fc tag
T1 chain: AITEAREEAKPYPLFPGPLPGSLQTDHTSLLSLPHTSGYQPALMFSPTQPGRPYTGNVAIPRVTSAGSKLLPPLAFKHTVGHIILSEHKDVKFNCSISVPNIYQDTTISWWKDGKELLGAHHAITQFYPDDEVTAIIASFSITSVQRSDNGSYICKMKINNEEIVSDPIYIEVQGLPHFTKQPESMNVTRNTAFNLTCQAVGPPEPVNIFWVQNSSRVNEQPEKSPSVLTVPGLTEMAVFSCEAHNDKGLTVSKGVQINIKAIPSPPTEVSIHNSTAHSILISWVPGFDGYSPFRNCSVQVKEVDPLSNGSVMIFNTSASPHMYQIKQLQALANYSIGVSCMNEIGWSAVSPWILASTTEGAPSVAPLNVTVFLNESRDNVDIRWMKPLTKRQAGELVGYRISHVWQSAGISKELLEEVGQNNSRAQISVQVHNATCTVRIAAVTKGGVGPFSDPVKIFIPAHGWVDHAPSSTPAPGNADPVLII
As to the kind of experiment: SPR Carterra LSA. On the procedure: Binding kinetics of anti-MerTK IgG1 antibodies of the present disclosure to human, cyno, and murine MerTK were evaluated using a Carterra LSA instrument (Carterra, Salt Lake City, UT). […] A HC200M sensor chip (Carterra) was activated using the single channel flow cell with a 7-minute injection of a 1:1:1 mixture of 100 mM MES pH 5.5, 100 mM sulfo-NHS, 400 mM EDC (all reconstituted in MES pH 5.5; 100 μl of each mixed in vial immediately before running assay). After switching to the multi-channel array flow cell, the antibodies were injected over the activated chip in three 96-spot arrays for 10 minutes each. The remaining unconjugated active groups on the chip were then blocked by injecting 1M Ethanolamine pH 8.5 (Carterra) for 7 minutes using the single channel flow cell. The resulting sensor chip contained three spots for each antibody, at three different densities. Two independent experiments were performed as follows, resulting in an N of between one and six determinations for each antibody. Spots that yielded less than 25 RU of analyte binding were excluded from further analysis.
After priming with running buffer (HBS-TE, Carterra) with 0.5 mg/ml BSA (Sigma), the immobilized anti-MerTK antibodies were tested for their ability to bind to several forms of recombinant MerTK extracellular domain, including human, cynomolgus, and mouse orthologs as described above. Estimates of affinity were generated by injecting each analyte over the entire antibody array using the single channel flow cell. MerTK analytes were diluted with running buffer, in a series of six, three-fold serial dilutions starting from 1 μM for human and cynomolgus MerTK, and 600 nM for mouse MerTK. Analytes were injected for 5 minutes, and dissociation was followed for 10 minutes. After each analyte injection, antibodies were regenerated with either Protein A/G Elution Buffer (Thermo) with 1M NaCl (Teknova), or with 10 mM Glycine pH 2.5. Three buffer blanks were run between each series (one species per series). Data were processed and analyzed using NextGenKIT high-throughput kinetics analysis software (Carterra).

The target in assay [2] is T2, recombinant human MerTK extracellular domain (human, UniProt Q12866 21-505).
T2 construct: also called human MerTK ECD; not shown: polyHis or TEVS/Thrombin/murine IgG2a-Fc tag
T2 sequence: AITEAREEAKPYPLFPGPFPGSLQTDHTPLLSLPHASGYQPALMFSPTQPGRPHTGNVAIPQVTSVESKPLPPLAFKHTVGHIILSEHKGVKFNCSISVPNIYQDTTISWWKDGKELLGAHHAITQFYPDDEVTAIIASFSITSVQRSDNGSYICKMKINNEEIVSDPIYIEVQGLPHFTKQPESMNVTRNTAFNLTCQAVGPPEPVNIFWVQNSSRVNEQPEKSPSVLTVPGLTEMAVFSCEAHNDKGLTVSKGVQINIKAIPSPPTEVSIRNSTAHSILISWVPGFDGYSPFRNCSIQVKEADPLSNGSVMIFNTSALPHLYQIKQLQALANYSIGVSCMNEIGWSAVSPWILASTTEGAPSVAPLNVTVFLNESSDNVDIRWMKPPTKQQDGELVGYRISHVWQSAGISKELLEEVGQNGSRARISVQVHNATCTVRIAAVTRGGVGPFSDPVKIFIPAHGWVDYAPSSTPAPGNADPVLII
As to the kind of experiment: SPR Carterra LSA, Ab immobilised. An outline of the steps: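 Surface plasmon resonance on a Carterra LSA measured affinity of immobilized antibodies for human, cynomolgus or mouse MerTK ectodomain diluted in HBS-TE with 0.5 mg/ml BSA. Analytes flowed over the full array, surfaces were regenerated with Protein A/G Elution Buffer plus 1M NaCl or 10 mM Glycine pH 2.5, and spots binding under 25 RU were discarded before kinetic fitting.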

Assay [3] addresses T3, MerTK N-terminal ECD Half-and-half chimera (human).
T3 construct: tested as culture supernatant; also called MerTK N-term half-and-half chimera; MerTK N-terminal ECD (NT-Ig1-Ig2) + Axl C-terminal ECD (FN1-FN2-JM)
T3 chain: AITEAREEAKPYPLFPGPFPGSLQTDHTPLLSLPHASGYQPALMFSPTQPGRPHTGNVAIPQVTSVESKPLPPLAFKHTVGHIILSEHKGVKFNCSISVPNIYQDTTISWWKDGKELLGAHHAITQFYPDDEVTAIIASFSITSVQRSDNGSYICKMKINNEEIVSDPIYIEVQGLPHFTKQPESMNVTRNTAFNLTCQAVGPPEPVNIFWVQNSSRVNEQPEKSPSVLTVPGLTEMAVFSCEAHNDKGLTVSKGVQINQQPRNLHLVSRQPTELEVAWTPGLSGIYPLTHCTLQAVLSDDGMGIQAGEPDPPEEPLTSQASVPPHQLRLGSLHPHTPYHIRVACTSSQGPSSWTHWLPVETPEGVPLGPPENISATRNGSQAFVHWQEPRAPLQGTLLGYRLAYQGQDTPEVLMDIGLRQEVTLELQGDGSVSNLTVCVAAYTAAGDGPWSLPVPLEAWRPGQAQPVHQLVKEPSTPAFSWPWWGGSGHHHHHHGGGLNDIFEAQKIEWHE
Nature of the assay: SPR, construct supernatant over immobilised Ab. On the procedure: Binding of anti-MerTK antibodies of the present disclosure to these domain-swapped chimera or deletion mutants was tested by Surface Plasmon Resonance (SPR) using Carterra LSA. Purified anti-MerTK antibodies were immobilized in duplicate on a HC30M chip (Carterra) by amine coupling, following the manufacturer's instructions (described previously).
Supernatants containing the constructs were diluted 1:1 with running buffer containing 0.5 mg/mL BSA (HBS-TE, Carterra; BSA, Sigma) and injected over the immobilized antibodies. The surface was regenerated with 10 mM Glycine pH2.0 after each construct injection. Sensorgrams were analyzed using Carterra Epitope software to identify patterns of construct binding. Loss of binding to MerTK constructs with domains deleted or swapped in from Axl and/or gain of binding to Axl constructs with MerTK domains swapped in were evaluated. Data from these studies were used to construct a domain binding map for anti-MerTK antibodies and their binding to various domains of human MerTK.
(In SPR one partner is held on a chip, and binding of the other changes the refractive index at the surface.)

Changes are numbered by the printed parent chain.

B1: MTK-221 (antibody, human IgG1, V domains shown)
VH: QVTLKESGPGMLQSSQTLSLTCSFSGFSLSTSGMGVSWIRQPSGKGLEWLAHIYWDDDKRYNTSLQSRLTISKDTSRNQVFLKITSVDTADTATYFCGRLGAYSAFPYYFDYWGQGTTLTVSS
VL: DIQMTQSPSSLSASLGGKVTITCKASQDIHKHIAWYQHKPGKGPRLLIHYTSTLQPGIPSRFSGSGSGRDYSFSISNLEPEDLATYYCLQYDNLWTFGGGTKLEIK
Take B1: the “Ratio of KD for Cynomolgus vs Human MerTK” value (shortened to “Ratio of KD for Cynomolgus”) in assay [1] worked out at 1.3 ratio. Further, the Kd in assay [2] came out at 29 nM.

B2: MTK-225 (antibody, human IgG1, V domains shown)
VH: EVQLQQSGPELVKPGASVKIFCKASGYTFTAYNMDWVKQSHGKSLEWIGDINPNNGGTIYNQKFKGKATLTVDKSSSTAYMELRSLTSEDTAVYYCARRRRYGNTYYWYFDVWGTGTTVTVSS
VL: DIQMTQSPASLSVSVGETVTITCRASENIYSSLAWYQQKQGKSPQLLVYAATNLADGVPSRFSGSGSGTQFYLKINGLQSEDFGSYYCQHFWGTSYTFGGGTKLEIK
Regarding B2, in assay [1], the “Ratio of KD for Cynomolgus” value stood at 1.5 ratio. Besides, the Kd in assay [2] came to 52 nM.

B3: MTK-224 (antibody, human IgG1, V domains shown)
VH: QVQLQQPGAELVKPGASVKVSCKASGYTFTSYWMHWVKQRPGQGLEWIGRIHPFDSDTNYNQKFKGKATLTVDKSSSTAYMQLSSLTSEDSAVYYCSIAGFAYWGQGTLVTVSA
VL: DIVMTQSPATLSVTPGDRVSLSCRASQIISDYLNWYQQKSHESPRLLIKYASQSISGIPSRFSGSGSGSDFTLSINSVEPEDVGVYYCQNGHSFPLTFGAGTKLELK
Consider B3, for which the binding result in assay [3] was “no binding”.

B4: MTK-209 (antibody, human IgG1, V domains shown)
VH: B3 VH with S31N, M34I, D57E, T58P, Q82H, S84T, S97A, I98L, G100S
VL: ETTVTQSPASLSMAMGEKATIRCITSTDIDDKMNWYQQKPGKPPKLLISAGNTLRPGVPSRFSSSGYGTDFVLTVENMLSEDVADYYCLQGGALPLTFGSGTKLEIK
On to B4, for which the binding result in assay [3] was “no binding”.

B5: MTK-230 (antibody, human IgG1, V domains shown)
VH: EVQLQQSGPELVKPGASVRIPCKASGYTFSDYNMDWVKQSHGKSLEWIGNINPNIGGTIYSQKFKGKATLTVDKSSSTAYMELRSLTSEDTAVYYCARGDYGFASWGQGTLVTVSA
VL: DIVLTQSPASLTVSLGQRATISCRASRSVSTSGYSYMHWYQQKPGQPPKLLIYLASNLESGVPARFSGSRSGTDFTLNIHPVEEEDAATYYCQHSREYPFTFGSGTKLEIK
As to B5, the binding result in assay [3] is on record as “no binding”.

B6: MTK-214 (antibody, human IgG1, V domains shown)
VH: QVQLQQPGAELVKPGASVKVSCKASGYTFTNYWMHWMKQRPGQGLEWIGRIHPFDSDTNYNEKFTDKATLTVDKSSSTAYMQLSSLTSEDSAVYYCAIGTLIYWGQGTTLTASS
VL: DILLTQSPATLSVTPGETVSLSCRASQSIYKKLHWFQQRSHRSPRLLIKFASDSISGIPSRFTGSGSGTDYTLSINSVKPEDEAIYYCLQGYSTPLTFGAGTKLELK
Consider B6, for which the binding result in assay [3] is on record as “no binding”.

B7: MTK-227 (antibody, human IgG1, V domains shown)
VH: EVKLVESGGGLVQPGGSLSLSCAASGFTFTDNYMTWVRQPPGKALEWLGFSRNKANGYTTEYSASVKGRFTISRDSSQSILYLQMNALRAEDSGTYYCARFPPHYYAGGYFDVWGTGTTVTVSS
VL: DIQMTQSPASLSASVGETVTITCRASENIYSYLAWYQQKQGKSPQLLVYNAKTLAEGVPSRFSGSGSGTQFSLKINSLQPADFGSYYCQHYYRTPPTFGGGTKLEIK
Turning to B7, the “Ratio of KD for Cynomolgus” value in assay [1] turned out to be 0.8 ratio. In assay [2], the Kd came to 99 nM. Besides, the binding result in assay [3] is “no binding”.

B8: MTK-203 (antibody, human IgG1, V domains shown)
VH: QVQLQQPGAELVKPGASVKVSCKASGYTFTNYWMHWVKQRPGQGLEWIGRIHPFDTETNDNQKFKGKATLTVDKSSSTAYMQLSSLTSEDSAVYYCVIPANGGFAYWGQGTLVTVSA
VL: ETTVTQSPASLSVATGEKVTIRCITSTDIGDDMNWYQQKPGEPPKVLISEGNSLRPGVPSRFSSSGYGTDFVFTIENTLSEDVADYFCLQSDNLPLTFGSGTKLEIK
B8: in assay [3], the binding result is “no binding”.

Source of the values: patent US20240294650A1 (Alector, published 2024).
